Measured values: a protein production outcome set (Wang et al. 2014)

Experiment: label from the status in PepcDB records

RGNLGQSQKVLIEFVSANPTGPLHVGHGRGAAFGATLGNVLKAAGYDVTLEYYVNDAGRQMNILAVSVWLRYLELAGEPIVFPANGYKGQYVYEIAQEIWSEQGNQFVHPWISVVENLPADEPEGGDKETYIDAIIARAQSLLGKDGFANFHQHALKTVLDDIKDDLQAFGVRFDSWFSEQSLFEDGSIEKGIQALKDRGHTYEREGALWFRATDFGDEKDRVLVRANGQTTYFASDVAYHWNKYDRGFDRVIDIFGADHHGYVTRIKTAVKALGHDESALDVILVQFAILYRGGDRVQMSTRSGSFVTLRELREEVGNDAARYFYVARKPEQHMDFDLDLAKSESSDNPVYYIQYAHARICSVLRQLKERGLKWDKDMGL
protein production: failed

MRQTKLTKAARGRECQVRIPGVCNGNPETTVLAHYRLAGTCGVGKKPHDMQGAWCCSACHDACDGRSRAVGRETARQYHAEGVMRTQALLLNEGVLVE
protein production: not failed

MWGRLLLWPLVLGFSLSGGTQTPSVYDESGSTGGGDDSTPSILPAPRGYPGQVCANDSDTLELPDSSRALLLGWVPTRLVPALYGLVLVVGLPANGLALWVLATQAPRLPSTMLLMNLATADLLLALALPPRIAYHLRGQRWPFGEAACRLATAALYGHMYGSVLLLAAVSLDRYLALVHPLRARALRGRRLALGLCMAAWLMAAALALPLTLQRQTFRLARSDRVLCHDALPLDAQASHWQPAFTCLALLGCFLPLLAMLLCYGATLHTLAASGRRYGHALRLTAVVLASAVAFFVPSNLLLLLHYSDPSPSAWGNLYGAYVPSLALSTLNSCVDPFIYYYVSAEFRDKVRAGLFQRSPGDTVASKASAEGGSRGMGTHSSLLQ
protein production: failed

MVLVILDFVVEWRDRVMVRWWSLLLDQGIEWSVKVVKRLLDQGVEWFDMIRGCQSSPLLLLAIKMCTEATKSSQIIMMGVNLRSLKDGFIDKGNSRVHLMANMRKANSLDDDSKPDIHSRDRDPHNYTTS
protein production: failed

MARSEGNRPRHRAVPQPSRIRKRLSRGVMTLVSVVALLMTGAGYWVAHGALGGITISQALTPEDPRSSGNNMNILLIGLDSRKDQEGNDLPWSVLKQLHAGDSDDGGYNTNTLILVHVGADGKVVAFSIPRDDWVPFTGVPGYNHIKIKEAYGLTKQYVAEQLANQGVSDRKELETRGREAARAATLRAVRSLTGVPIDYFAEINLAGFYDLAQTLGGVDVCLNHAVYDSYSGADFPAGRQRLNAAQALAFVRQRHGLDNGDLDRTHRQQAFLSSVMRELQDSGTFTNLDRLDNLMAVARKDVVLSAGWDEDLFRRMGDLAGGNVEFRTLPVVRYDNIDGQDVNIIDPTAIRAEVAAAFGSAPPTSQTAAAAKPNPSTVVDVVNAGSISGLASQVSGALLKRGYTAGQVRDRESGDPFTTAIEYGAGAETDAQNVADLLGIDAPNHPDPAVAPGHIRVTVDTNFSLPAPDEATAAATSTETSTYPLYGGGTTTDPTPDQGAPIDGGGVPCVN
protein production: failed

MFSFNMFDHPIPRVFQNRFSTQYRCFSVSMLAGPNDRSDVEKGGKIIMPPSALDQLSRLNITYPMLFKLTNKNSDRMTHCGVLEFVADEGICYLPHWMMQNLLLEEGGLVQVESVNLQVATYSKFQPQSPDFLDITNPKAVLENALRNFACLTTGDVIAINYNEKIYELRVMETKPDKAVSIIECDMNVDFDAPLGYKEPERQVQHEESTEGEADHSGYAGELGFRAFSGSGNRLDGKKKGVEPSPSPIKPGDIKRGIPNYEFKLGKITFIRNSRPLVKKVEEDEAGGRFVAFSGEGQSLRKKGRKP
protein production: not failed

MKASFKGKFDVDKSGSVASLTFNAGNAKLRATMTDASFVAGPSFNGLSLAVEKPGFFIIDYNVPKKDVRFQFMNTIRIAEKPLNLTYIHMRGDNRTIVDGSFVIDPANKLSANYMVGTKNCKLKYTYVHGGIATFEPCYDVAKNMWDFAISHKLYGGDNLKATYQTSSKMLGLEWSNNSKSTGSFKVCASMNLAEELKPPKLTAETTWNLEL
protein production: not failed

MKNSFFSKFTPKEPKFFPLLKQLSDVLSASSVLLVESMEHDLPTERADYYKQIKDMEREGDRLTHLIFDELSTTFITPFDREDIHDLASCMDDVIDGINSSAKRIVIYNPRPISESGKELSRLIHEEAINIGKAMDELETFRKNPKPLRDYCTQLHDIENQADDVYELFITKLFEEEKDCIELIKIKEIMHELEKTTDAAEHVGKILKNLIVKYS
protein production: not failed

MLFDEKEILAITRWAKLYANQSPDRILLGSNDIPPEYRAAVATQIELWPRLRNKLPQWPGISSLYIPSRLSLEQSSGAVTSSYKSRFIREGTKVVDLTGGLGIDFIALMSKASQGIYIERNDETAVAARHNIPLLLNEGKDLNILTGDFKEYLPLIKTFHSDYIYVDPARRSGADKRVYAIADCEPDLIPLAAELLPFCSSILAKLSPMIDLWDTLQSLPHVQELHVVAAHGEVKELLVRMSLNEATIPPEKVPIHAVNLLSEDTVIPFIFTMEEERSISVPYADSIDKYVYEPHTALFKAGAFKTVAYRLGLRKLHPNSHLYTSEAYESAFPGRTFVLEEIIPFSTSVLKQLGKVVPRASISCRNFPLSPIELRQRSKMADGGEKTLMGTTMADGKKVLLLLRKAE
protein production: failed

MTDTTAEPSRPSGRLWAYLWQLHAETKAYLTLDAPAIASNIDSLSESEQQLAREVFPDGGQSTADSDGGSATDAGSRGGDDSSPFDVGGSYSLRQKIGLVLGPLLFAALLFSPTPDGLPAEGQAVAAVTAWVAVWWMSEAIPIPAASLLPIVLFPLAGALPVEPTATSYGHPLVFLFMGGFFLAMAMQRWGLHRRIALRTIKLVGTEPSRLILGFMLATAILSMWVSNSATVMMMVPIALAVIYQTADLIDDSDVDIDTGVGEFSFGIALMLCIAYGASVGGVATLIGTPPNILFAGQAEALFGQSVSFAEWMLYGVPIAALGLVTVYIYVTRIAMTPQFDSLPAGTETIDRELAELGSMSQQEKLVAVVFVGMAAAWIGASLIEPVLDITPPDDADTIVAIGGALVLFTFPTTGENGDQTFLLDWSSAVEIPWGVILLFGGGLAIAAGFSETGLAVWIGEQLQLLEGVQMAAILLAVVVMTIFLTEVTSNTATTAMLMPILGAVAIGISVHPFGLMIAGATAASFAFMLPVATPPNAIVFGSGYITLPQMARVGVGLNVIGIVLITLLALVWLPIAWGIELATLPAEFADAFDS
protein production: failed

MRPVLLLCCLFLSATAQAEDCSPQTSVGSWCELPLAALHPTQQNVGLLQVEDDQAKLAGKKPKALERYLRKKEIPVVIGPGGRFYLTDRHHLSSALWRLDPKQGVPVKVIGRLPQASDFWEKMQENHWVWLHDARGAEIPPEALPDALAGLGDDPYRALAGYAEDENAFDKDRQSYFIEFHWARYFGERMHWRPISRATLPDDLKQALRLACEPAARELPGYRQDCPHLEHHHHHH
protein production: failed

MSHPDYRMNLRSLGTHRGVSAVAGPHDIGASPGDKKSKNRSTRGKKKSIFETYMSKEDVSEGLKRGTLIQGVLRINPKKFHEAFIPSPDGDRDIFIDGVVARNRALNGDLVVVKLLPEEHWKVVKPESNDKETEAAYESDIPEELCGHHLPQQSLKSYNDSPDVIVEAQFDGSDSEDGHGITQNVLVDGVKKLSVCVSEKGREDGDAPVTKDETTCISQDTRALSEKSLQRSAKVVYILEKKHSRAATGFLKLLADKNSELFRKYALFSPSDHRVPRIYVPLKDCPQDFVARPKDYANTLFICRIVDWKEDCNFALGQLAKSLGQAGEIEPETEGILTEYGVDFSDFSSEVLECLPQGLPWTIPPEEFSKRRDLRKDCIFTIDPSTARDLDDALSCKPLADGNFKVGVHIADVSYFVPEGSDLDKVAAERATSVYLVQKVVPMLPRLLCEELCSLNPMSDKLTFSVIWTLTPEGKILDEWFGRTIIRSCTKLSYEHAQSMIESPTEKIPAKELPPISPEHSSEEVHQAVLNLHGIAKQLRQQRFVDGALRLDQLKLAFTLDHETGLPQGCHIYEYRESNKPCCAGTPRPKQGCSVTWWNSATRWGCPWTSAPQEPSIKA
protein production: failed

RSEIVRLNSLMNDILNNIPVYLFVKDTGNDFRYLYWNKAFAEHSGISVQRAVGSTDADIFPDKKDAEHFREDDLKVMKLGRIEYLENYTTMSGEVRTVTTMKTVVPSGGQHPYIIGVSWDVT
protein production: failed
